Target: HLA-A2.1 (HLA-A*0201) with β2-microglobulin on the surface of T2 cells (human)

KLGEFYNQMM (modifications not checked) [Influenza B nucleoprotein peptide (aa 85-94), P04665 85-94] showed a Median Channel of Fluorescence of HLA-A2 Expression on T2 (median channel of fluorescence) of 194.

Reference: patent US20060045884A1, “Vaccines for autoimmune and infectious disease” (Board of Regents, priority 2004, published 2006)
